Among the data in the supplement of paper PMC12042874 are amyloid nucleation score values, retold here.

± gives the uncertainty stated by the source.

The series in a line: amyloid nucleation score (Sup35N fusion, yeast selection) (log enrichment); library NNK2; higher = more nucleation; inactive = no reads after selection. In outline:
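The nucleation score, computed with DiMSum, is the log enrichment of output over input reads, centred on the mode score of non-aggregating sequences. Sequences with under 100 input reads were dropped. Reads were generated by Illumina sequencing of plasmid inserts from psi-negative yeast with Sup35N fused to peptides of 20 random codons, induced with 100 μM copper sulfate for 24 hours and grown 7 days at 30°C on medium lacking adenine and uracil.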
In the case of EWVNVASVYGDSKKRYGWNA, the amyloid nucleation score is -0.239 ± 0.61.

On to EYAYILELFYQCFVMPYTLV, for which the amyloid nucleation score was 0.392 ± 0.51.

Regarding EYHLDHDFSPMGMAPRH, the amyloid nucleation score was 0.049 ± 0.63.

As for EYHSSWVISAPVYLQSATAW, the amyloid nucleation score amounted to 5.23 ± 0.085.

Regarding EYRVYYSRLRSLSTEEPMAS, the amyloid nucleation score was -0.299 ± 0.79.

Substance EYSFIHLEIKNTVLKRVLTP returned an amyloid nucleation score of 1.66 ± 0.32.

With EYSLCRMG, the amyloid nucleation score is -0.155 ± 0.28.

The substance FACIPIQCIGISGRGSRDRR showed an amyloid nucleation score of 8.017 ± 0.044.

Take FAESDGRHHFFSPLVSERIE: the amyloid nucleation score was 3.82 ± 0.056.

For FAFMITPCMLTSRMFSYGHA, the amyloid nucleation score was -0.18 ± 0.36.

Turning to FAFTPIC, the amyloid nucleation score is -1.59 ± 1.

For FAIMHFY, the amyloid nucleation score was -0.711 ± 1.1.

The substance FAYISRFKGG displayed an amyloid nucleation score of 4.22 ± 0.059.

For the substance FAYKNRNM, the amyloid nucleation score was -0.307 ± 0.41.

On to FCEWGSEYWGNMDCDACDTA, for which the amyloid nucleation score is -1.09 ± 0.76.

For the substance FCIQK, the amyloid nucleation score was -0.114 ± 0.55.

On to FCKDLMFC, for which the amyloid nucleation score turned out to be 0.378 ± 0.36.

As for FCLDLWCKGFLYYTQCVNGW, the amyloid nucleation score is 4.08 ± 0.063.

FCMRNGVYLEYFVGLMLFCA: the amyloid nucleation score was -0.566 ± 0.63.

Regarding FCNDRTTVGD, the amyloid nucleation score is -0.538 ± 0.39.

FCRNIKDYLDYCHRGVGPKK yielded an amyloid nucleation score of 0.176 ± 0.76.

As to FCSGVLQMLLISLDNLGRVS, the amyloid nucleation score was -0.017 ± 1.

The substance FCSPCSFLINSY gave an amyloid nucleation score of 6.514 ± 0.048.

On to FCSVTMHKKMN, for which the amyloid nucleation score is -0.195 ± 0.38.

In turn, FCTKSTGNMCFTIMKLRG gave an amyloid nucleation score of 0.097 ± 0.79.

Turning to FDGTIYCPSWILWETPGVNK, the amyloid nucleation score result was “inactive”.

Take FDKCLDKLMDKEKHALTFPQ: the amyloid nucleation score is -0.453 ± 1.1.

With FDLSREV, the amyloid nucleation score was -0.544 ± 0.29.

On to FDTRLSNFFPF, for which the amyloid nucleation score was -0.636 ± 0.76.

As to FDTVGYSACCCWP, the amyloid nucleation score came out at 4.78 ± 0.11.

For FEEYEGLLDVSFKRPSFYCI, the amyloid nucleation score is 0.456 ± 0.6.

For the substance FEGTHCVSSIANVMCVRWCL, the amyloid nucleation score was found to be 6.43 ± 0.069.

In turn, FEGVTYSRVV came in with an amyloid nucleation score of 0.001 ± 0.54.

As for FEKISSAFFGNYGLFMNWLS, the amyloid nucleation score is -0.441 ± 0.78.

With FEMIC, the amyloid nucleation score is 0.783 ± 0.57.

Consider FEYPLCKTFEIRKPVFRVWV, for which the amyloid nucleation score was -0.089 ± 0.79.

FFAGKCGIMTSLRDLSVAFG: the amyloid nucleation score is -0.071 ± 0.65.

Regarding FFAKCELVSWDFDKSLGSSM, the amyloid nucleation score is -0.437 ± 0.34.

With FFCPRGRAFLSSRM, the amyloid nucleation score was -0.788 ± 0.79.

FFCTQRFSVCVLGVHKLESL showed an amyloid nucleation score of 4.26 ± 0.048.

As to FFDGSVNQYESRYHGCD, the amyloid nucleation score is -0.37 ± 0.76.

FFFMSDLYKSLSSAYDLGSI: the amyloid nucleation score entry was “inactive”.

As to FFGGYYYKLSQKLLRIAHYH, the amyloid nucleation score entry is “inactive”.

For FFHKDPLLQNRIVLHMQVPA, the amyloid nucleation score result was “inactive”.

On to FFIIMRYRLRDFTFVYSSPV, for which the amyloid nucleation score is -0.627 ± 0.31.

Take FFMCMQVWLRVFYVRGM: the amyloid nucleation score is -1.5 ± 0.36.

With FFQEGYNRVPS, the amyloid nucleation score is -0.336 ± 0.62.

On to FFQVPSSNLVSLTDRLYSLG, for which the amyloid nucleation score was -1.16 ± 0.5.

FFSNL had an amyloid nucleation score of 0.119 ± 0.57.

The substance FFSTTYNHNSDFAWDQAELY yielded an amyloid nucleation score of 0.016 ± 1.1.

With FFTVFLQDIMVWRDQWIYPQ, the amyloid nucleation score result was “inactive”.

Take FFYEFFSHICLGQERGWPRV: the amyloid nucleation score result is “inactive”.

For FGCIFYPMYLS, the amyloid nucleation score amounted to 5.32 ± 0.088.

FGDLGLIVRDSKSLLGSIKQ had an amyloid nucleation score of 0.053 ± 0.79.

On to FGFKCSAVITICPGPSRLGS, for which the amyloid nucleation score was 5.12 ± 0.081.

Consider FGGRFIQSRVSMR, for which the amyloid nucleation score entry was “inactive”.

Regarding FGIERCRLYGNFYCVAVLGS, the amyloid nucleation score entry is “inactive”.

FGILGCMYVNPNMNMIYWLW yielded an amyloid nucleation score of 1.56 ± 0.24.

In the case of FGLDLVFISFQARKCFVVMD, the amyloid nucleation score entry is “inactive”.

As to FGLGVCNWIYGCKMDAFNSG, the amyloid nucleation score came to 6.223 ± 0.039.

Consider FGMLFGQDKTVHRSGLDLCG, for which the amyloid nucleation score is 0.119 ± 0.5.

FGVITNSGCGRLFAEEKTRW returned an amyloid nucleation score of 1.15 ± 0.16.

Regarding FGWVVSSVSFKVMMAV, the amyloid nucleation score was -0.084 ± 0.44.

For the substance FHVEHGAWWCIGDRFVVPGF, the amyloid nucleation score was determined as 0.541 ± 0.2.

For FHVTVRFRSYCIFDPRGCVI, the amyloid nucleation score is 1.81 ± 0.21.

Turning to FIEVTSRNT, the amyloid nucleation score was -0.994 ± 0.42.

For FIFGCTCNILFICASSRFLQ, the amyloid nucleation score stood at 2.92 ± 0.11.

With FIFVSNKYTNGIFAILGT, the amyloid nucleation score worked out at 1.98 ± 0.13.

As to FIILYGSGMRLNFQGI, the amyloid nucleation score is 0.968 ± 0.23.

For FIKDKKSPSCCAN, the amyloid nucleation score is -0.866 ± 0.4.

Substance FIKRSAGNREANYNVTKENA yielded an amyloid nucleation score of 0.816 ± 0.74.

As to FILVCWISIFGLFMIPGMWD, the amyloid nucleation score is -1.13 ± 0.64.

Regarding FIMEAFFEPFNKGYRYRMMS, the amyloid nucleation score turned out to be 0.833 ± 0.18.

Consider FINGGSCYAFFCKYGYRMHR, for which the amyloid nucleation score is -0.109 ± 0.37.

In the case of FIRVLVWWYVCRLFPHCVAR, the amyloid nucleation score was found to be 0.554 ± 0.81.

For FISDVPHERLRLTFIF, the amyloid nucleation score is -1.41 ± 0.64.

Turning to FISGYLSETVMVLVDRRLRC, the amyloid nucleation score is -0.047 ± 1.1.

On to FIVWVV, for which the amyloid nucleation score is -0.916 ± 1.1.

With FIVYKVPFRV, the amyloid nucleation score was -0.934 ± 0.78.

On to FKGDVHANHFICQMLFAPFR, for which the amyloid nucleation score is 8.596 ± 0.057.

With FLACRSLGKPRMFDRSLRYV, the amyloid nucleation score turned out to be 0.185 ± 0.44.

The substance FLARLI displayed an amyloid nucleation score of 0.45 ± 0.74.

As to FLDPTVFSYLQVTCDIVDLH, the amyloid nucleation score was -0.113 ± 1.1.

FLDQWDMCP: the amyloid nucleation score worked out at 0.619 ± 0.81.

Turning to FLECTSNIDVAMSPWLTLLN, the amyloid nucleation score is -0.505 ± 1.1.

Take FLFMAIYSILLASIYVAFLS: the amyloid nucleation score was found to be 2.02 ± 0.2.

FLFSFKDPKHMDITCKAVYA: the amyloid nucleation score was -0.433 ± 0.78.

Regarding FLGDFRVCLF, the amyloid nucleation score result was “inactive”.

For FLGLYKRYGVEVGLYMLILV, the amyloid nucleation score was -0.742 ± 0.24.

Regarding FLGSVSVLLDKSSSGVNSKR, the amyloid nucleation score was -0.284 ± 1.1.

FLISEDVFHSNSSVWEHISL: the amyloid nucleation score is -0.173 ± 0.56.

As to FLMSVTYCKGFGRTEECACC, the amyloid nucleation score is -0.28 ± 0.33.

As for FLMVVVGNVLPLSKCYALWY, the amyloid nucleation score was -0.007 ± 0.55.

For FLNMTIRVLAWFVYTI, the amyloid nucleation score entry is “inactive”.

On to FLNWCISKLR, for which the amyloid nucleation score is -0.735 ± 1.

For FLRLGLAITLISV, the amyloid nucleation score entry is “inactive”.

FLRLHE: the amyloid nucleation score result was “inactive”.

In the case of FLSARHGRGFARGFSPP, the amyloid nucleation score entry was “inactive”.

Turning to FLSDNVISAY, the amyloid nucleation score was -0.543 ± 0.38.

On to FLTLPFLPAHLKKPHKSLLR, for which the amyloid nucleation score is -0.083 ± 0.56.

On to FLVYMIVVV, for which the amyloid nucleation score is -0.702 ± 1.1.

Take FLYIRRAVGKWFLVFVTLQQ: the amyloid nucleation score stood at 0.135 ± 0.48.

The substance FLYRVNAKWVWLRGLSLWQW displayed an amyloid nucleation score of 0.252 ± 0.23.

For FMDWKLYSDPWAKF, the amyloid nucleation score was -0.639 ± 0.37.

FMGGFG yielded an amyloid nucleation score of 0.079 ± 0.63.

FMGRMLVIHL: the amyloid nucleation score worked out at 0.277 ± 0.41.

Regarding FMHNHGPGLDTYAYGTR, the amyloid nucleation score is -1.13 ± 0.64.

FMLRICPGYAKGRCISWHSR had an amyloid nucleation score of 0.396 ± 0.46.

FMLTLQKTLFFCNDRVC displayed an amyloid nucleation score of 5.25 ± 0.064.

Regarding FMTKTPLYVKSYSFWFDLVM, the amyloid nucleation score came to 1.57 ± 0.36.

With FMVDASLNQRMGINQFVCS, the amyloid nucleation score is -1.34 ± 0.76.

Turning to FMYGTDSFGL, the amyloid nucleation score is -1.08 ± 0.78.

Substance FNMHI had an amyloid nucleation score of 0.8 ± 0.8.

In the case of FNRPAQNGLAKYWYWIQ, the amyloid nucleation score worked out at 0.142 ± 0.42.

As to FNRVDDMCGPWCENWLNGQT, the amyloid nucleation score was -1.23 ± 1.1.

With FNSWLV, the amyloid nucleation score is -0.86 ± 1.1.

Take FNTNRNEMCSML: the amyloid nucleation score was -0.476 ± 1.1.

FNTSFNSVFPCSYRRFTGDI gave an amyloid nucleation score of 1.72 ± 0.097.

For the substance FNTSTAFESTDVKSKVM, the amyloid nucleation score was -1.22 ± 1.1.

For FPAWTDGVVLVRVVGASTEE, the amyloid nucleation score was -0.132 ± 0.34.

In turn, FPCSVRVTLTYLFMYEPVRP returned an amyloid nucleation score of 0.076 ± 0.2.

In the case of FPDSSEISHGAVHLLQVCPL, the amyloid nucleation score was -0.313 ± 0.33.

Consider FPNDKLCNFFFDNNQSLARK, for which the amyloid nucleation score was -1.31 ± 1.

For the substance FPSVLSFWKTMSVCGDHPYP, the amyloid nucleation score is -0.686 ± 0.3.

On to FPVYRI, for which the amyloid nucleation score result was “inactive”.

Substance FQDVDVLGSWPG registered an amyloid nucleation score of 0.387 ± 0.53.

For FQGCIPFLFVNSWFSYSFVK, the amyloid nucleation score was -1.36 ± 1.1.

As for FQLPFIVFRRMIVYLKWRWG, the amyloid nucleation score was -1.05 ± 0.78.

On to FQMVLYRYYTTGISGKLLQD, for which the amyloid nucleation score entry is “inactive”.

For FQSHWVLERGI, the amyloid nucleation score is -0.901 ± 1.

Substance FRDVPGRECMRLRVYGMNLP had an amyloid nucleation score of 0.753 ± 0.21.

In the case of FRFLDNELQNRGRRMYQLGY, the amyloid nucleation score was -0.465 ± 1.

FRKGNIMELFALCCMISYCF: the amyloid nucleation score was -0.682 ± 0.49.

Turning to FRLHLKEFDGVPRWCQYTF, the amyloid nucleation score entry was “inactive”.

As for FRLIQWWARWIVFFGSTSLH, the amyloid nucleation score was -0.804 ± 0.45.

As to FRLRVRTVRQNCLYHWGSVE, the amyloid nucleation score is 0.024 ± 0.56.

With FRNSNLT, the amyloid nucleation score was -0.462 ± 0.76.

Take FRTSYRSCCVNTYREVVVYA: the amyloid nucleation score was -0.501 ± 0.45.

Take FRTYSAVVEWARNKYNLFCG: the amyloid nucleation score was -0.271 ± 0.28.

FRVMSRVWTTEESAFLKLLC: the amyloid nucleation score was -0.94 ± 0.63.
